The text below walks through data of publication PMC3401287.

The assay has as its target HER2 (human (endogenous in BT-474, SK-BR-3, MDA-MB-361)) (UniProt P04626). Briefly: flow cytometry on cells; cell-based saturation assay: 3x10^5 BT-474 cells with increasing concentration of DyLight-488-labeled Affibody in PBS with 2% FBS, on ice, one hour; non-specific binding subtracted; three independent experiments.

Substance “Z_(HER2)-GS-Cys labeled with DyLight-488 (designed binder)” showed a Kd of 3.66 nM.
